Holding throughout (settings): protein: synthetic; tags: custom-synthesized peptide
The target in series [1] is T1, Rex peptide (printed HIV-1 Rex in tables, HTLV-1 Rex in text) (Human T-cell leukemia virus type 1?).
T1 chain: MPKTRRRPRRSQRKRP
Put plainly: EMSA; 50 mM Tris-HCl pH 8.0, 50 mM KCl, 30 C.

In a further series the target is T2, λN peptide (Bacteriophage lambda, UniProt P03045 SEQ:1-22).
T2 chain: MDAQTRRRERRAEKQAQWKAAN
Put plainly: EMSA; 50 mM Tris-HCl pH 8.0, 50 mM KCl, 30 C. A general note: Mobility shift assays separate free from complexed probe on a gel.

Series [2] addresses Rev peptide (printed HTLV-1 Rev). Briefly: EMSA; cross-reactivity; 50 mM Tris-HCl pH 8.0, 50 mM KCl, 30 C.
The target in series [3] is T1, Rex peptide (printed HIV-1 Rex in …). Briefly: EMSA; 50 mM Tris-HCl pH 8.0, 50 mM KCl, 30 C, ethidium bromide stain. The source says: Experiments in vitro to choose aptamer-peptide pairs. Based on available data we chose three peptide/aptamer pairs; (i) […]; (ii) Bacterophage λN; and (iii) […] (see Table 1) and tested their binding affinity with cognate partner and cross-reactivity with two other RNA aptamers in vitro. We used non-radioactive gel-shift assay under conditions when fixed concentrations of RNA aptamer were allowed to form complexes with increasing ARM-peptide concentrations. We quantified the amount of the unbound RNA aptamer and the amount of the shifted complex (Table 1). […] At the same time, […] peptide did show some cross-reactivity with the two non-matched RNA aptamers.
In Vitro Gel-Shift Assay. RNAs were first denatured by heating at 95° C. in buffer (50 mM pH 8.0 Tris-HCl, 50 mM KCl) for 3 minutes and then slowly cooled to room temperature to renature the RNAs. Renatured RNAs and peptides were mixed in a common buffer (50 mM Tris-HCl, pH 8.0, 50 mM KCl) at 30° C. for 15 minutes. Peptide-RNA aptamer complexes were analyzed using gel electrophoresis with 15% TBE gel. RNA aptamers and peptide-RNA aptamer complexes were stained with ethidium bromide.

Consider GGAUCCGGGCCCUGAAGAAGGGCCCUUUCCUUU (ssRNA) [λN aptamer (boxB)], for which the binding result in series [1] is “no binding”; in the series with λN peptide, “binds”; in series [2], “binds”.
For UAGGCGACGGUACGCAAGUACUCUUGCGCCGGCCUA (ssRNA) [anti-Rex aptamer], the binding result in series [3] was “binds”; with λN peptide it was “no binding”.
In the case of GGCUGGACUCGUACUUCGGUACUGGAGAAACAGCC (ssRNA) [anti-Rev aptamer], the binding result (in series [1]; with λN peptide) was “no binding” each time.

Values taken from patent US20090029370, “REAL TIME NUCLEIC ACID DETECTION IN VIVO USING PROTEIN COMPLEMENTATION” (TRUSTEES OF BOSTON UNIVERSITY, published 2009).
